# Assay results taken from article PMC4591102 (European journal of nuclear medicine and molecular imaging, 2015).
# Like-named read-outs stand apart in the source and are kept apart here.
# What was measured:
# integrin αvβ3 = integrin αvβ3 (Homo sapiens, UniProt P05106+P06756); assay: Competitive cell binding assay with ^125I-echistatin in U87MG cells
# [1] = Ex vivo biodistribution at 4 h p.i.; design: species or system athymic nude mice; conditions: mouse, in vivo
# Dynamic PET = assay: Dynamic PET; design: species or system athymic nude mice; conditions: mouse, in vivo; for half-life: iv
# [2] = Metabolic stability in urine by radio-HPLC; assay type: in vivo, ICR mice
# [3] = Octanol-water partition coefficient; assay type: physicochemical
# [4] = Longitudinal static PET with ROI analysis in U87MG tumor-bearing mice; design: species or system athymic nude mice; conditions: mouse, in vivo
# [5] = Serum stability by radio-HPLC; assay type: in vitro ADME, mouse
# [6] = mouse, U87MG tumor, 10 mg/kg
# in vivo = conditions: both, athymic nude, mouse, tumor, 10 mg/kg, total radioactivity
smiles,measurement,setting,value
N=C(N)NCCC[C@@H]1NC(=O)[C@H](CCCCNC(=S)Nc2ccc(CC3CN(CC(=O)O)CCN(CC(=O)O)CCN3CC(=O)O)cc2)NC(=O)[C@@H](Cc2ccccc2)NC(=O)[C@H](CC(=O)O)NC(=O)CNC1=O (stereo partly drawn) [NOTA-c(RGDfK)],IC50,integrin αvβ3,507 ± 62 nM
"N=C(N)NCCC[C@@H]1NC(=O)[C@H](CCCCNC(=O)COCCOCCNC(=O)COCCOCCNC(=S)Nc2ccc(C[C@H]3CN(CC(=O)O)CCN(CC(=O)O)CCN3CC(=O)O)cc2)NC(=O)[C@@H](Cc2ccccc2)NC(=O)[C@H](CC(=O)O)NC(=O)CNC1=O [^64Cu-NOTA-(PEG)2-c(RGDfK), metal not drawn]",tissue uptake at 4 h,[1],2.36 ± 0.31 %ID/g
same,tissue uptake,Dynamic PET,~4 %ID/g
same,half-life,Dynamic PET,4.76 min
same,radioactive metabolites in urine,"[2]; mouse, in vivo",not observed
same,logP,[3],-2.82 ± 0.06
same,tissue uptake at 0.5 h,[4],3.62 ± 0.21 %ID/g
same,fraction remaining intact in serum,"[5]; mouse, serum, 4 h",> 95%
"N=C(N)NCCC[C@@H]1NC(=O)[C@H](CCCCNC(=O)[C@H]2O[C@@H](CNC(=O)[C@H]3O[C@@H](CNC(=O)[C@H]4O[C@@H](CNC(=O)[C@H]5O[C@@H](CNC(=O)CCOCCOCCOCCOCCNC(=S)Nc6ccc(C[C@H]7CN(CC(=O)O)CCN(CC(=O)O)CCN7CC(=O)O)cc6)[C@H](O)[C@@H](O)[C@H]5O)[C@H](O)[C@@H](O)[C@H]4O)[C@H](O)[C@@H](O)[C@H]3O)[C@H](O)[C@@H](O)[C@H]2O)NC(=O)[C@@H](Cc2ccccc2)NC(=O)[C@H](CC(=O)O)NC(=O)CNC1=O [^64Cu-NOTA-PEG4-SAA4-c(RGDfK), metal not drawn]",tissue uptake at 4 h,"[1]; 10 mg/kg, kidney uptake, ex vivo, with blocking, 4 h p.i., blocking group, c(RGDyK) 10 mg/kg",1.78 ± 1.04 %ID/g
same,tissue uptake at 4 h,"[1]; 5.5 MBq, U87MG tumor uptake, ex vivo, 4 h p.i., γ-counter",1.14 ± 0.26 %ID/g
same,tissue uptake at 4 h,"[1]; 5.5 MBq, kidney uptake, ex vivo, 4 h p.i., positive (unblocked) group",0.96 ± 0.12 %ID/g
same,tissue uptake,Dynamic PET; 5.5 MBq,~4 %ID/g
same,half-life,Dynamic PET; 5.5 MBq,4.07 min
same,radioactive metabolites in urine,[2]; urine collected 1 h after administration,not observed
same,tissue uptake at 0.5 h,[6],0.42 ± 0.14 %ID/g
same,tissue uptake at 2 h,[6],0.24 ± 0.06 %ID/g
same,tissue uptake at 4 h,[6],0.18 ± 0.03 %ID/g
same,logP,[3],-3.4 ± 0.05
same,tissue uptake at 0.5 h,"[4]; 5.5 MBq, U87MG tumor uptake, PET, 0.5 h p.i.",2.5 ± 0.18 %ID/g
same,tissue uptake at 2 h,"[4]; 5.5 MBq, U87MG tumor uptake, PET, 2 h p.i., n = 3",1.77 ± 0.38 %ID/g
same,tissue uptake at 4 h,"[4]; 5.5 MBq, U87MG tumor uptake, PET, 4 h p.i., n = 3",1.67 ± 0.38 %ID/g
same,fraction remaining intact in serum,[5]; 1 or 4 h incubation in mouse serum at 37°C,> 95%
same,tissue uptake,in vivo,10 %ID/g
"N=C(N)NCCC[C@@H]1NC(=O)[C@H](CCCCNC(=S)Nc2ccc(CC3CN(CC(=O)O)CCN(CC(=O)O)CCN3CC(=O)O)cc2)NC(=O)[C@@H](Cc2ccccc2)NC(=O)[C@H](CC(=O)O)NC(=O)CNC1=O (stereo partly drawn) [^64Cu-NOTA-c(RGDfK), metal not drawn]",tissue uptake at 4 h,[1],2.98 ± 0.52 %ID/g
same,half-life,Dynamic PET,2.56 min
same,logP,[3],-2.65 ± 0.01
same,tissue uptake at 0.5 h,[4],4.78 ± 0.74 %ID/g
